The source of these data is US20260209386A1 (MYTHIC THERAPEUTICS, published 2026).

This assay addresses T1, Human PTK7/CCK4 Protein, His Tag, Acro Biosystems PT7-H52H3 (human, UniProt Q13308 31-704).
T1 construct: bought protein; also called Human PTK7 Protein, His Tag, Acro Biosystems; not shown: His tag
T1 sequence: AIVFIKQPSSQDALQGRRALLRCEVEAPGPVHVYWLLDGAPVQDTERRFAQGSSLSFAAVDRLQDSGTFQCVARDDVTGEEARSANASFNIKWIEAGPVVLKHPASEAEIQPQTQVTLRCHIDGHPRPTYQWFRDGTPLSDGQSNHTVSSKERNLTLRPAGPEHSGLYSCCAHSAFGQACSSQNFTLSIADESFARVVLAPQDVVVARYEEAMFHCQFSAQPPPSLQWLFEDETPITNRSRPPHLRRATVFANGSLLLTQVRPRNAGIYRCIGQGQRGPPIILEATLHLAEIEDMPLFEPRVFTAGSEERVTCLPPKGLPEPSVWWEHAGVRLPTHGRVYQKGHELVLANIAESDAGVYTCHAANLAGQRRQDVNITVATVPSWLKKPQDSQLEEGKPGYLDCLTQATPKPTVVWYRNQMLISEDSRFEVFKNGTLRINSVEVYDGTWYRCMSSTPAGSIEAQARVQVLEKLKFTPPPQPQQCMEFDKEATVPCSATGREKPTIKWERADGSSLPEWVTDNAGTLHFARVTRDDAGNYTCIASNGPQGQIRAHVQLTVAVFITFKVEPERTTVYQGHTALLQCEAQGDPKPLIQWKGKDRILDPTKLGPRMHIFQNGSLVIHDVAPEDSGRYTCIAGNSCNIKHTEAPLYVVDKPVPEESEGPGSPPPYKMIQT
As to the kind of experiment: BLI, antibody on anti-human Fc sensor, 50 nM PTK7.

B1: MYT11180 (antibody, V domains shown)
VH: EVQLVESGGGLVQPGGSLRLSCTASHIDLSSYVMGWVRQAPGKGLEWVGYIYGGGGTYYATWARGRFTISRDTSKNTVYLQMNSLRAEDTAVYFCARAAADFYFNLWGQGTLVTVSS
VL: EIVMTQSPSTLSASVGDRVIITCQASQSISSYLAWYQQKPGKAPKLLIYDISDLASGVPSRFSGSGSGAEFTLTISSLQPDDFATYYCQSYYWISNSGAAFGQGTKLTVL
notes: IgG
B1: the binding result is given as “binds”.

B2: MYT11106 (antibody, V domains shown)
VH: EVQLVESGGGLVQPGGSLRLSCTASGFSLHTYAMSWVRQAPGKGLEWVGMIYINDNTYYASWAKGRFTISRDTSKNTVYLQMNSLRAEDTAVYFCARDIGISYYIGVSLWGQGTLVTVSS
VL: EIVMTQSPSTLSASVGDRVIITCQASQSIGTRLSWYQQKPGKAPKLLIYGASKLATGVPSRFSGSGSGAEFTLTISSLQPDDFATYYCLGEYSYTTTDGIAFGQGTKLTVL
notes: IgG
Turning to B2, the binding result is listed as “binds”.

B3: MYT11163 (antibody, V domains shown)
VH: EVQLVESGGGLVQPGGSLRLSCTASGFSLSTYAMSWVRQAPGKGLEWVGMIYINDNTYYASWAKGRFTISRDTSKNTVYLQMNSLRAEDTAVYFCARDIGISYYIGVSLWGQGTLVTVSS
VL: EIVMTQSPSTLSASVGDRVIITCQASQSIGTRLSWYQQKPGKAPKLLIYGASKLATGVPSRFSGSGSGAEFTLTISSLQPDDFATYYCHGEYSYTTTDGIAFGQGTKLTVL
notes: IgG
Regarding B3, the binding result is given as “binds”.

B4: MYT11146 (antibody, V domains shown)
VH: EVQLVESGGGLVQPGGSLRLSCTASGFSLSTYAMSWVRQAPGKGLEWVGMIYINDNTYYASWAKGRFTISRDTSKNTVYLQMNSLRAEDTAVYFCARDIGISYYIGVSLWGQGTLVTVSS
VL: EIVMTQSPSTLSASVGDRVIITCQHSQSIGTRLSWYQQKPGKAPKLLIYGASKLATGVPSRFSGSGSGAEFTLTISSLQPDDFATYYCLGEYSYTTTDGIAFGQGTKLTVL
notes: IgG
For the molecule B4, the binding result is listed as “binds”.

B5: MYT11117 (antibody, V domains shown)
VH: EVQLVESGGGLVQPGGSLRLSCTASGFSLSTYAMSWVRQAPGKGLEWVGMIYINHNTYYASWAKGRFTISRDTSKNTVYLQMNSLRAEDTAVYFCARDIGISYYIGVSLWGQGTLVTVSS
VL: EIVMTQSPSTLSASVGDRVIITCQASQSIGTRLSWYQQKPGKAPKLLIYGASKLATGVPSRFSGSGSGAEFTLTISSLQPDDFATYYCLGEYSYTTTDGIAFGQGTKLTVL
notes: IgG
Regarding B5, the binding result is reported as “binds”.

B6: MYT11172 (antibody, V domains shown)
VH: EVQLVESGGGLVQPGGSLRLSCTASGFSLSTYAMSWVRQAPGKGLEWVGMIYINDNTYYASWAKGRFTISRDTSKNTVYLQMNSLRAEDTAVYFCARDIGISYYIGVSLWGQGTLVTVSS
VL: EIVMTQSPSTLSASVGDRVIITCQASQSIGTRLSWYQQKPGKAPKLLIYGASKLATGVPSRFSGSGSGAEFTLTISSLQPDDFATYYCLGEYSYTTTHGIAFGQGTKLTVL
notes: IgG
Turning to B6, the binding result is “binds”.

B7: MYT11137 (antibody, V domains shown)
VH: EVQLVESGGGLVQPGGSLRLSCTASGFSLSTYAMSWVRQAPGKGLEWVGMIYINDNTYYASWAKGRFTISRDTSKNTVYLQMNSLRAEDTAVYFCARDIGISYYHGVSLWGQGTLVTVSS
VL: EIVMTQSPSTLSASVGDRVIITCQASQSIGTRLSWYQQKPGKAPKLLIYGASKLATGVPSRFSGSGSGAEFTLTISSLQPDDFATYYCLGEYSYTTTDGIAFGQGTKLTVL
notes: IgG
With B7, the binding result was “binds”.

B8: MYT11120 (antibody, V domains shown)
VH: EVQLVESGGGLVQPGGSLRLSCTASGFSLSTYAMSWVRQAPGKGLEWVGMIYINDNTHYASWAKGRFTISRDTSKNTVYLQMNSLRAEDTAVYFCARDIGISYYIGVSLWGQGTLVTVSS
VL: EIVMTQSPSTLSASVGDRVIITCQASQSIGTRLSWYQQKPGKAPKLLIYGASKLATGVPSRFSGSGSGAEFTLTISSLQPDDFATYYCLGEYSYTTTDGIAFGQGTKLTVL
notes: IgG
For the molecule B8, the binding result is listed as “binds”.

B9: MYT11115 (antibody, V domains shown)
VH: EVQLVESGGGLVQPGGSLRLSCTASGFSLSTYAMSWVRQAPGKGLEWVGMIYHNDNTYYASWAKGRFTISRDTSKNTVYLQMNSLRAEDTAVYFCARDIGISYYIGVSLWGQGTLVTVSS
VL: EIVMTQSPSTLSASVGDRVIITCQASQSIGTRLSWYQQKPGKAPKLLIYGASKLATGVPSRFSGSGSGAEFTLTISSLQPDDFATYYCLGEYSYTTTDGIAFGQGTKLTVL
notes: IgG
As to B9, the binding result is “binds”.

B10: MYT11134 (antibody, V domains shown)
VH: EVQLVESGGGLVQPGGSLRLSCTASGFSLSTYAMSWVRQAPGKGLEWVGMIYINDNTYYASWAKGRFTISRDTSKNTVYLQMNSLRAEDTAVYFCARDIGIHYYIGVSLWGQGTLVTVSS
VL: EIVMTQSPSTLSASVGDRVIITCQASQSIGTRLSWYQQKPGKAPKLLIYGASKLATGVPSRFSGSGSGAEFTLTISSLQPDDFATYYCLGEYSYTTTDGIAFGQGTKLTVL
notes: IgG
Consider B10, for which the binding result is “binds”.

B11: MYT11151 (antibody, V domains shown)
VH: EVQLVESGGGLVQPGGSLRLSCTASGFSLSTYAMSWVRQAPGKGLEWVGMIYINDNTYYASWAKGRFTISRDTSKNTVYLQMNSLRAEDTAVYFCARDIGISYYIGVSLWGQGTLVTVSS
VL: EIVMTQSPSTLSASVGDRVIITCQASQSIHTRLSWYQQKPGKAPKLLIYGASKLATGVPSRFSGSGSGAEFTLTISSLQPDDFATYYCLGEYSYTTTDGIAFGQGTKLTVL
notes: IgG
Turning to B11, the binding result is listed as “binds”.

B12: MYT11136 (antibody, V domains shown)
VH: EVQLVESGGGLVQPGGSLRLSCTASGFSLSTYAMSWVRQAPGKGLEWVGMIYINDNTYYASWAKGRFTISRDTSKNTVYLQMNSLRAEDTAVYFCARDIGISYHIGVSLWGQGTLVTVSS
VL: EIVMTQSPSTLSASVGDRVIITCQASQSIGTRLSWYQQKPGKAPKLLIYGASKLATGVPSRFSGSGSGAEFTLTISSLQPDDFATYYCLGEYSYTTTDGIAFGQGTKLTVL
notes: IgG
B12: the binding result is recorded as “binds”.

B13: MYT11107 (antibody, V domains shown)
VH: EVQLVESGGGLVQPGGSLRLSCTASGFSLSHYAMSWVRQAPGKGLEWVGMIYINDNTYYASWAKGRFTISRDTSKNTVYLQMNSLRAEDTAVYFCARDIGISYYIGVSLWGQGTLVTVSS
VL: EIVMTQSPSTLSASVGDRVIITCQASQSIGTRLSWYQQKPGKAPKLLIYGASKLATGVPSRFSGSGSGAEFTLTISSLQPDDFATYYCLGEYSYTTTDGIAFGQGTKLTVL
notes: IgG
With B13, the binding result was “binds”.

B14: MYT11108 (antibody, V domains shown)
VH: EVQLVESGGGLVQPGGSLRLSCTASGFSLSTHAMSWVRQAPGKGLEWVGMIYINDNTYYASWAKGRFTISRDTSKNTVYLQMNSLRAEDTAVYFCARDIGISYYIGVSLWGQGTLVTVSS
VL: EIVMTQSPSTLSASVGDRVIITCQASQSIGTRLSWYQQKPGKAPKLLIYGASKLATGVPSRFSGSGSGAEFTLTISSLQPDDFATYYCLGEYSYTTTDGIAFGQGTKLTVL
notes: IgG
For the molecule B14, the binding result is listed as “binds”.

B15: MYT11150 (antibody, V domains shown)
VH: EVQLVESGGGLVQPGGSLRLSCTASGFSLSTYAMSWVRQAPGKGLEWVGMIYINDNTYYASWAKGRFTISRDTSKNTVYLQMNSLRAEDTAVYFCARDIGISYYIGVSLWGQGTLVTVSS
VL: EIVMTQSPSTLSASVGDRVIITCQASQSHGTRLSWYQQKPGKAPKLLIYGASKLATGVPSRFSGSGSGAEFTLTISSLQPDDFATYYCLGEYSYTTTDGIAFGQGTKLTVL
notes: IgG
On to B15, for which the binding result was “binds”.

B16: MYT11152 (antibody, V domains shown)
VH: EVQLVESGGGLVQPGGSLRLSCTASGFSLSTYAMSWVRQAPGKGLEWVGMIYINDNTYYASWAKGRFTISRDTSKNTVYLQMNSLRAEDTAVYFCARDIGISYYIGVSLWGQGTLVTVSS
VL: EIVMTQSPSTLSASVGDRVIITCQASQSIGHRLSWYQQKPGKAPKLLIYGASKLATGVPSRFSGSGSGAEFTLTISSLQPDDFATYYCLGEYSYTTTDGIAFGQGTKLTVL
notes: IgG
As for B16, the binding result is given as “binds”.

B17: MYT11166 (antibody, V domains shown)
VH: EVQLVESGGGLVQPGGSLRLSCTASGFSLSTYAMSWVRQAPGKGLEWVGMIYINDNTYYASWAKGRFTISRDTSKNTVYLQMNSLRAEDTAVYFCARDIGISYYIGVSLWGQGTLVTVSS
VL: EIVMTQSPSTLSASVGDRVIITCQASQSIGTRLSWYQQKPGKAPKLLIYGASKLATGVPSRFSGSGSGAEFTLTISSLQPDDFATYYCLGEHSYTTTDGIAFGQGTKLTVL
notes: IgG
On to B17, for which the binding result is “binds”.

B18: MYT11153 (antibody, V domains shown)
VH: EVQLVESGGGLVQPGGSLRLSCTASGFSLSTYAMSWVRQAPGKGLEWVGMIYINDNTYYASWAKGRFTISRDTSKNTVYLQMNSLRAEDTAVYFCARDIGISYYIGVSLWGQGTLVTVSS
VL: EIVMTQSPSTLSASVGDRVIITCQASQSIGTHLSWYQQKPGKAPKLLIYGASKLATGVPSRFSGSGSGAEFTLTISSLQPDDFATYYCLGEYSYTTTDGIAFGQGTKLTVL
notes: IgG
On to B18, for which the binding result is given as “binds”.
